Test results taken from article PMC2575792.

Target: T1, ICAM-1 fused to monomeric EGFP (mEGFP) or to mRFP1, P05362
T1 chain: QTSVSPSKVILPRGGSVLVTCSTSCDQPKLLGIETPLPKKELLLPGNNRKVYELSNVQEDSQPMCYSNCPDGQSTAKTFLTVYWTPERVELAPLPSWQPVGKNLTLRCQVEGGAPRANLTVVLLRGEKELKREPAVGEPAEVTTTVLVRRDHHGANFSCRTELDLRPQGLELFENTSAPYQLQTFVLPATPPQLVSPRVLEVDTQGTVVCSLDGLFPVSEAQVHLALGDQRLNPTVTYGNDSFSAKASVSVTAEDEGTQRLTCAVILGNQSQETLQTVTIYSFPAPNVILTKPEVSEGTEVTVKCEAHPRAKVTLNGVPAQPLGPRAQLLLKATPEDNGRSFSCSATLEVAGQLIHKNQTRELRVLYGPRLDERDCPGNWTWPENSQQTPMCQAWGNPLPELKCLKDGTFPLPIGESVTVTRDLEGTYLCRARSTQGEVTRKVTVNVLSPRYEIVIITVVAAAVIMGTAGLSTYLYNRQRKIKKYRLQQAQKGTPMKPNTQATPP
Experiment: FRET or BRET
Settings: remark: other sources report otherwise

B1: ICAM-1 fused to monomeric EGFP (mEGFP) or to mRFP1, P05362 28-532 (receptor)
chain: T1 chain
  FRET efficiency: 14 to 34%
  percent of pixels with positive FRET: 12%
